According to the supplement of paper PMC10126150:
± gives the standard deviation of the averaged measurements.

tested on: ATP; test: switch fluorescence ratio, 500 uM ATP over buffer (Cy3 cluster intensity, sum of 5 cycles each) (fold (ratio)); higher = stronger signal-on switching upon ATP binding; sequences stand for … in TCGTCGGCAGCGTCAGATGTGTATAAGAGACAGTTTTTTTTTTTTTTTTTTTTTTTTT…TC; details: aptamer strand: ATP DNA aptamer (quencher-CACCTGGGGGAGTATTGCGGAGGAAGG + anchor), 100 nM annealed; ATP concentration: 500 uM
Outline: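 Imaging in selection buffer was followed by imaging after 15 min with 500 uM ATP at 22 °C, for Cy3-labelled switching-strand clusters annealed to 100 nM quencher-labelled ATP aptamer on a modified Illumina MiSeq flow-cell. Five of these buffer/ATP cycles ran, separated by NaOH stripping and re-annealing. The fluorescence ratio per cluster is summed target-cycle over summed buffer-cycle Cy3 intensity, averaged per switch-domain sequence; clusters outside 100-1000 RFU were removed.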
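Further: ATP exposure 15 min at 22 °C before imaging.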

| Sequence | switch fluorescence ratio |
| --- | --- |
| TTTAGGGTG | 1.05 ± 0.061 |
| AGCCCCGGCT | 0.967 ± 0.045 |
| CAGGAACGAG | 1.004 ± 0.0035 |
| GTGTTACTTT | 0.99 ± 0.017 |
| GGGGGGGAAC | 1 ± 0.04 |
| TAGGTGTTGG | 1.02 ± 0.007 |
| ACTTTCCGTT | 1.1 ± 0.05 |
| CCGGAGATCC | 2.06 ± 0.22 |
| TAGTCGAGGG | 0.971 ± 0.024 |
| GCATTATGTT | 0.987 ± 0.044 |
| TCGAGTTGGT | 1.01 ± 0.0018 |
| ACGGGAGACC | 1.02 ± 0.018 |
| TATAAGGGGA | 1 ± 0.039 |
| TCAGGTACAT | 1.07 ± 0.014 |
| ATATCTATTT | 0.997 ± 0.019 |
| CTTCTGGGGA | 0.993 ± 0.02 |
| ATTGCAATGG | 1.6 ± 0.034 |
| TCTGCCTTTT | 1.05 ± 0.074 |
| GCCTTAGCGG | 1.03 ± 0.048 |
| TGTGATAGAG | 0.989 ± 0.029 |
| ATTGATGCTT | 0.979 ± 0.018 |
| AACCGATGTG | 1.01 ± 0.037 |
| GGGTAGGTGC | 1.13 ± 0.044 |
| GGGACTTGGG | 0.998 ± 0.037 |
| CTGGGTGGGG | 1 ± 0.013 |

| Sequence | switch fluorescence ratio |
| --- | --- |
| TTAATGGTTT | 1.11 ± 0.17 |
| CAGAGCCAAC | 1.11 ± 0.016 |
| AGAGGGAGGA | 1.017 ± 0.0086 |
| ATCAGGGACA | 1.18 ± 0.017 |
| GACAGAGGGT | 1.04 ± 0.013 |
| AGTTGGGCAT | 0.995 ± 0.017 |
| AAGGTTCGAA | 1.023 ± 0.0033 |
| ACGCAGGGGG | 0.989 ± 0.034 |
| TAAAAAAGTT | 1.12 ± 0.26 |
| GCTGGGTAAC | 1.006 ± 0.0034 |
| TTTATTTTGT | 1 ± 0.038 |
| GTGATAGTGG | 0.9385 ± 0.0022 |
| GGGTTTTCAT | 0.993 ± 0.012 |
| TTACTGCTTT | 1.02 ± 0.025 |
| CGATTGCGTG | 1 ± 0.05 |
| AGAATATTCT | 0.98 ± 0.014 |
| GTTGGGAGCC | 0.99 ± 0.01 |
| GTTGGGCCGT | 0.987 ± 0.038 |
| TCCAATGATG | 1.03 ± 0.018 |
| TGTAAGACCC | 1.06 ± 0.033 |
| AAAGTCATGG | 0.948 ± 0.013 |
| AATCGGAGCA | 1.349 ± 0.0071 |
| AAAATTAGTT | 1.03 ± 0.012 |
| AATATCGGGA | 0.983 ± 0.038 |
| CTCTACGAGA | 0.983 ± 0.015 |

| Sequence | switch fluorescence ratio |
| --- | --- |
| GGGGGCGTGG | 1 ± 0.043 |
| ATGATTGGA | 0.992 ± 0.015 |
| TTGGGTCGGC | 1.0032 ± 0.001 |
| GGGGTGATTG | 0.979 ± 0.0077 |
| GGTGTATTGG | 0.991 ± 0.029 |
| AACGTTAAAT | 1.01 ± 0.037 |
| GACAACGGAT | 1.02 ± 0.03 |
| GATTGCCAGG | 1.05 ± 0.035 |
| AATCAGATCG | 0.962 ± 0.018 |
| CGTTCAACGA | 1 ± 0.029 |
| CTGTAAGGCC | 0.981 ± 0.015 |
| CCTTGCGGGG | 1.06 ± 0.012 |
| GCGCGAGTAG | 1.03 ± 0.028 |
| GCAGGAGGAA | 0.991 ± 0.02 |
| TTGGAATAAA | 1.02 ± 0.015 |
| ACTCTTATTG | 0.988 ± 0.0039 |
| ATGAGTTATT | 1.01 ± 0.013 |
| GCCTAACACT | 1.01 ± 0.04 |
| TGGGTAGGTG | 1.11 ± 0.028 |
| AGATATTACG | 1.03 ± 0.037 |
| AGGGAGCTGG | 0.998 ± 0.013 |
| ATGATAGGGA | 1.01 ± 0.063 |
| TTAAGGCGCT | 0.976 ± 0.019 |
| TTGGGGCGTG | 0.971 ± 0.057 |
| TTAATATGCT | 0.997 ± 0.049 |

| Sequence | switch fluorescence ratio |
| --- | --- |
| TGGTTACCAT | 1.02 ± 0.057 |
| GGATTTAAAA | 1.05 ± 0.044 |
| AGAATATCGT | 0.984 ± 0.043 |
| TGATTTTGTT | 1.01 ± 0.018 |
| GTCTGGGCGG | 0.9919 ± 0.0031 |
| TCATGGAGAT | 0.965 ± 0.033 |
| GGTCTAAGGG | 0.976 ± 0.036 |
| GGACGGGATT | 1.02 ± 0.068 |
| GAGGCGGACT | 1.02 ± 0.015 |
| ATTTAGTCAG | 0.9737 ± 0.0053 |
| ATGGTAAAAA | 1.05 ± 0.1 |
| TTAGGGGCAA | 1.04 ± 0.073 |
| CGGAAAAGGG | 0.993 ± 0.064 |
| TCGTTATTGG | 0.9844 ± 0.0023 |
| ACTTTTACAT | 1.13 ± 0.025 |
| GAGGTTAGAG | 0.9796 ± 0.0026 |
| GCAGAATTTG | 1.02 ± 0.031 |
| TTGCTATGTG | 0.979 ± 0.015 |
| AGGCCTAACG | 0.995 ± 0.01 |
| GGGGCTTTTC | 1.01 ± 0.027 |
| TTAGGCCGAG | 1.04 ± 0.022 |
| GGGATTGGAT | 0.967 ± 0.037 |
| CGTGCGCATA | 3.77 ± 1.4 |
| GATTAAAAT | 1.01 ± 0.013 |
| TAAGGGGGAC | 1.01 ± 0.053 |
